Experimental data: the supplement of paper PMC11246515
± gives the standard deviation of the averaged measurements.

Experiment: total protein half-life in vivo (active degradation + dilution); higher = more stable protein
[1] = E. coli NCM3722 delta-clpP delta-lon delta-hslV, growth: N-lim chemostat, doubling time 6 h
[2] = E. coli NCM3722 delta-clpP, growth: N-lim chemostat, doubling time 6 h
[3] = E. coli NCM3722 delta-hslV, growth: N-lim chemostat, doubling time 6 h
[4] = E. coli NCM3722 delta-lon, growth: N-lim chemostat, doubling time 6 h
[5] = E. coli NCM3722 delta-smpB, growth: N-lim chemostat, doubling time 6 h
[6] = wild type E. coli NCM3722, growth: C-lim chemostat, doubling time 3 h
[7] = wild type E. coli NCM3722, growth: C-lim chemostat, doubling time 6 h
[8] = wild type E. coli NCM3722, growth: C-lim chemostat, doubling time 12 h
[9] = wild type E. coli NCM3722, growth: N-lim chemostat, doubling time 6 h
[10] = wild type E. coli NCM3722, growth: N-lim chemostat, doubling time 12 h
[11] = wild type E. coli NCM3722, growth: P-lim chemostat, doubling time 6 h
[12] = wild type E. coli NCM3722, growth: P-lim chemostat, doubling time 12 h

Sequence	total protein half-life in vivo [1] [h]	total protein half-life in vivo [2] [h]	total protein half-life in vivo [3] [h]	total protein half-life in vivo [4] [h]	total protein half-life in vivo [5] [h]	total protein half-life in vivo [6] [h]	total protein half-life in vivo [7] [h]	total protein half-life in vivo [8] [h]	total protein half-life in vivo [9] [h]	total protein half-life in vivo [10] [h]	total protein half-life in vivo [11] [h]	total protein half-life in vivo [12] [h]
MNELDGIKQFTTVVADSGDIESIRHYHPQDATTNPSLLLKAAGLSQYEHLIDDAIAWGKKNGKTQEQQVVAACDKLAVNFGAEILKIVPGRVSTEVDARLSFDKEKSIEKARHLVDLYQQQGVEKSRILIKLASTWEGIRAAEELEKEGINCNLTLLFSFAQARACAEAGVFLISPFVGRIYDWYQARKPMDPYVVEEDPGVKSVRNIYDYYKQHHYETIVMGASFRRTEQILALTGCDRLTIAPNLLKELQEKVSPVVRKLIPPSQTFPRPAPMSEAEFRWEHNQDAMAVEKLSEGIRLFAVDQRKLEDLLAAKL [P0A867]	5.487 ± 0.013	5.51 ± 0.43	5.35 ± 0.25	5.76 ± 0.63	5.19 ± 0.4	3.12 ± 0.12	5.95 ± 0.33	11.7 ± 0.016	5.19 ± 0.21	9.85 ± 1.3	5.9 ± 0.16	12.8 ± 0.16
MNEVVNSGVMNIASLVVSVVVLLIGLILWFFINRASSRTNEQIELLEALLDQQKRQNALLRRLCEANEPEKADKKTVESQKSVEDEDIIRLVAER	3.97 ± 0.73	6.38	–	1.45	1.31	2.6	–	–	1.78	–	2.17	3.4 ± 1.1
MNFQQLKIIREAARQDYNLTEVANMLFTSQSGVSRHIRELEDELGIEIFVRRGKRLLGMTEPGKALLVIAERILNEASNVRRLADLFTNDTSGVLTIATTHTQARYSLPEVIKAFRELFPEVRLELIQGTPQEIATLLQNGEADIGIASERLSNDPQLVAFPWFRWHHSLLVPHDHPLTQISPLTLESIAKWPLITYRQGITGRSRIDDAFARKGLLADIVLSAQDSDVIKTYVALGLGIGLVAEQSSGEQEEENLIRLDTRHLFDANTVWLGLKRGQLQRNYVWRFLELCNAGLSVEDIKRQVMESSEEEIDYQI	6.2 ± 1.1	2.47 ± 0.054	0.454	0.652	0.654	1.18 ± 0.11	1.156 ± 0.01	1.86	1.04 ± 0.049	1.02	2.33 ± 0.71	4.48 ± 0.47
MNGELIWVLSLLAVAIVLFATGRVRMDAVALFVIVAFALSGTLTVPEVFSGFSDPNVVLIAALFIIGDGLVRTGVATVMGTWLVKVAGNSEIKMLVLLMLTVAGLGAFMSSTGVVAIFIPVVLSVAMRMQTSPSRLMMPLSFAGLISGMMTLVATPPNLVVNSELLREGYHGFSFFSVTPIGLVVLVLGILYMLVMRFMLKGDTQTPQREGWTRRTFRDLIREYRLTGRARRLAIRPGSPMIGQRLDDLKLRERYGANVIGVERWRRFRRVIVNVNGVSEFRARDVLLIDMSAADVDLRQFCSEQLLEPMVLRGEYFSDQALDVGMAEISLIPESELIGKSVREIGFRTRYGLNVVGLKRNGVALEGSLADEPLLLGDIILVVGNWKLIGMLAKQGRDFVALNLPEEVSEASPAHSQAPHAIFCLVLMVALMLTDEIPNPVAAIIACLLMGKFRCIDAESAYKSIHWPSIILIVGMMPFAVALQKTGGVALAVKGLMDIGGGYGPHMMLGCLFVLSAVIGLFISNTATAVLMAPIALAAAKTMGVSPYPFAMVVAMAASAAFMTPVSSPVNTLVLGPGNYSFSDFVKLGVPFTIIVMAVCVVMIPMLFPF [P0AFU2]	–	–	6.68 ± 0.32	6.39 ± 0.64	6.29 ± 0.45	> 4	5.46	–	5.65 ± 1.7	12.4 ± 3.2	> 8	12.8 ± 1.7
MNGLLRIRQRYQGLAQSDKKLADYLLLQPDTARHLSSQQLANEAGVSQSSVVKFAQKLGYKGFPALKLALSEALASQPESPSVPIHNQIRGDDPLRLVGEKLIKENTAAMYATLNVNSEEKLHECVTMLRSARRIILTGIGASGLVAQNFAWKLMKIGFNAAAVRDMHALLATVQASSPDDLLLAISYTGVRRELNLAADEMLRVGGKVLAITGFTPNALQQRASHCLYTIAEEQATNSASISACHAQGMLTDLLFIALIQQDLELAPERIRHSEALVKKLV	5.79 ± 0.53	4.3186 ± 0.00083	2.83 ± 0.031	3.72 ± 0.33	3.5 ± 0.69	2.44 ± 0.087	4.31 ± 0.2	5.65 ± 1.1	2.8 ± 0.11	4.19 ± 0.29	3.73 ± 0.18	7.58 ± 1.8
